Measurements: the supplement of paper PMC10567573
± gives the standard deviation.

Assay: protein stability index of a GFP-peptide fusion (GPS, HEK-293T) (PSI 1-6); higher = more stable
[1] = treatment: DMSO, c terminus: a fixed tail appended
[2] = treatment: MLN4924 1 uM, 8 h, c terminus: a fixed tail appended
[3] = treatment: DMSO, c terminus: native
[4] = treatment: MLN4924 1 uM, 8 h, c terminus: native
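Further: 24-mer peptide tiles fused after GFP, lentivirally expressed, FACS-sorted into six equal bins by GFP/DsRed ratio, decoded by Illumina sequencing, PSI is the read-weighted mean bin number.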

Sequence | protein stability index [1] | protein stability index [2] | protein stability index [3] | protein stability index [4]
IRVKIADLGNACWVHKHFTEDIQT [SRPK2] | 2.43 ± 0.5 | 2.26 ± 0.57 | – | –
ISCVERGWSTPPKCRSTISAEKCG [CFHR2] | 2.88 ± 0.14 | 3.09 ± 0.32 | – | –
ISGGFDRTVAIWDVAEGYRKLSLK [WDR88] | 3.09 ± 0.49 | 3.02 ± 0.36 | – | –
ISLHPFNPWNWGKLAEAYLNLGPA [C8orf76] | 2.23 ± 1.1 | 2.18 ± 0.77 | – | –
IVATLLILDICEDNVPDPKDVKER [TMEM175] | 2.46 ± 0.67 | 2.49 ± 0.37 | – | –
IVDKCTELLREGRASATTTITTAA [ZBTB22] | 3.78 ± 0.1 | 3.74 ± 0.18 | – | –
IVLNKINQILMEKYLKLQDTCRTQ [INTS3] | 3.59 ± 0.83 | 3.24 ± 0.61 | – | –
IWAFLDVSFVERILKSQKERQCAL [FBXO39] | 2.41 ± 0.53 | 2.24 ± 0.17 | – | –
IWNILDLVVILLSIVAVGFHIFRT [PKD2L1] | 3.15 ± 0.64 | 2.45 ± 0.84 | – | –
IYNGGVEAVSTLLGAVAVFAVGYI [SLC19A2] | 2.37 ± 0.26 | – | – | –
IYSTDLHKLDLNTREWTQLKPNNL [KLHDC10] | 2.65 ± 0.18 | 2.81 ± 0.15 | – | –
KAETKTKKAAESLRRSVEKYNSAR [FCHO1] | 4.64 ± 0.22 | 4.72 ± 0.075 | – | –
KCRSTISAEKCGPPPPIDNGDITS [CFHR2] | 4.52 ± 0.071 | 4.45 ± 0.29 | – | –
KCYLNGVKVPGIVRLRTLLCKVLG [CLCN6] | 2.93 ± 0.43 | 2.77 ± 0.36 | – | –
KEETNHSEMAEDLCKIGSERSLVL [IKZF1] | 4.69 ± 0.31 | 4.86 ± 0.28 | – | –
KFLEICKLSGFMSKLVPAIQNAHK [TPRG1] | 2.27 ± 0.74 | 2.81 ± 1 | – | –
KGLLKKGACYGDDACFVARHRSAD [PPTC7] | 4.16 ± 0.56 | 4.05 ± 0.25 | – | –
KHAAFVTPDQKYSMDNTPHTPTPF [MYBL2] | 3.84 ± 0.25 | 3.84 ± 0.35 | – | –
KHIPYREHKSLTGTARYMSINTHL [CSNK1G3] | 2.41 ± 0.088 | 2.51 ± 0.32 | – | –
KILVGNRLHLAFKRQVPTEQAQAY [RAB40B] | 2.07 ± 0.16 | 2.5 ± 0.23 | – | –
KKAFVWARNIGFKVNSKKMLGKYN [ACSBG2] | 2.5 ± 0.46 | 2.35 ± 0.38 | – | –
KKALSGLSSRWKNWWIRGILTLTM [CDS1] | 2.14 ± 0.091 | 2.22 ± 0.19 | – | –

Sequence | protein stability index [1] | protein stability index [2] | protein stability index [3] | protein stability index [4]
KKIYAMGGGSYGKLFESVECYDPR [GAN] | 2.94 ± 0.24 | 2.99 ± 0.17 | – | –
KKNSNMTYEKLSRAMRYYYKREIL [ELF3] | 2.33 ± 0.25 | 2.27 ± 0.47 | – | –
KKQTKVEFPEARIFEETLNILIYE [KCTD13] | 2.16 ± 0.2 | 2.44 ± 0.5 | – | –
KKSGEKEQHISKCKKAFREGSRKS [KMT2E] | 4.23 ± 0.78 | 4.61 ± 0.27 | – | –
KKSSRNIFSIVFVFFVCFVPYHIA [P2RY14] | 3.31 ± 1 | 3.53 ± 0.15 | – | –
KLGALLSRCRKLVEYFQQSAVAMY [ZBED1] | 3.12 ± 0.31 | 3.1 ± 0.21 | – | –
KLHYPELYVLKGGYKEFFMKCQSY [CDC25A] | 2.42 ± 0.5 | 2.04 ± 0.33 | – | –
KLTQRLEEMTQRMEALENRLRYR [MATN2] | – | – | 2.7 ± 0.51 | 2.79 ± 0.34
KLYGQRERVWALAQEKAADVQARL [FCHSD1] | 3.51 ± 0.32 | 3.49 ± 0.3 | – | –
KMLRKEAAARCVVLDCRPYLAFAA [DUSP5] | 2.77 ± 0.63 | 2.51 ± 0.44 | – | –
KNGLSFIETSALDSTNVEAAFQTI [RAB11A] | 3.31 ± 0.27 | 3.56 ± 0.43 | – | –
KPDYEYLRTLFTDLFEKKGYTFDY [CSNK1G1] | 2.4 ± 0.47 | 2.31 ± 0.15 | – | –
KPKIEDVGSDEEDDSGKDKKKKTK [HSP90AB1] | 5.54 ± 0.24 | 5.56 ± 0.12 | – | –
KPSFQSGGRRRPPASSRNRSPSGS [RBMY1A1] | 4.93 ± 0.33 | 5.35 ± 0.32 | – | –
KRKKLSTWKQELLKLMDRHKKDCA [ZNF75A] | 2.7 ± 0.15 | 2.83 ± 0.21 | – | –
KSAILVPSEKKVAIIRTPPKSPAT [MAP2] | 4.32 ± 0.14 | 4.41 ± 0.1 | – | –
KVRSLETENSALQLQVTEREEVRG [LMNB1] | 5.22 ± 0.35 | 5.53 ± 0.15 | – | –
KYKVHGKEILRTLQDVFCWLPLAT [PPEF2] | 3.08 ± 0.62 | 3.3 ± 1.7 | – | –
LALCQRYYHRGHVDPANDTFDIDP [MCOLN1] | 3.11 ± 0.13 | 3.23 ± 0.29 | – | –
LASYLEKVRQLERDNAELEKLIQE [KRT34] | 3.33 ± 0.22 | 3.5 ± 0.24 | – | –
LAYYEVCSWKGATKQRIQDQKVPY [CHIT1] | 2.71 ± 0.4 | 2.8 ± 0.37 | – | –
LCGAGSEPSIAPTSCAGNLPSRPP [RSPH3] | 4.36 ± 0.36 | 4.28 ± 0.21 | – | –

Sequence | protein stability index [1] | protein stability index [2] | protein stability index [3] | protein stability index [4]
LDCADALLKAGADVNKTDHSQRTA [INVS] | 5.09 ± 0.38 | 5.13 ± 0.43 | – | –
LDKQAKLSRAYDGTTYLPGIVGLN [USP39] | 3.15 ± 0.39 | 3.1 ± 0.2 | – | –
LDMRRDHEEQLQRLKLLKDREVDA [FBF1] | 5.08 ± 0.21 | 4.91 ± 0.3 | – | –
LDNLLAFVCDIRPEIHENYRING [ATP6V1G1] | – | – | 2.27 ± 0.49 | 2.47 ± 0.21
LDSVSPCPSSPKQIHLDVDNDRTT [DLC1] | 5.37 ± 0.13 | 5.55 ± 0.099 | – | –
LEALLEAAGIGKLSTADGKAFADP [ANKRD17] | 3.42 ± 0.38 | 3.31 ± 0.15 | – | –
LEATVKKLEESKQLLKNNEKLITW [SASS6] | 2.73 ± 1.2 | 3.44 ± 0.62 | – | –
LEQFVAILPKELQTWVRDHHPENG [ZNF24] | 3.2 ± 0.1 | 3.23 ± 0.21 | – | –
LESEGSPETLTNLRKGYLFMYNLV [HACD3] | 2.02 ± 0.2 | 1.97 ± 0.27 | – | –
LESLQDGAAESPYAYSNGIDYKTT [RAB40C] | 4.29 ± 0.34 | 4.5 ± 0.16 | – | –
LEVKIRDWYQRQRPSEIKDYSPYF [KRT16] | 2.19 ± 0.2 | 2.24 ± 0.49 | – | –
LEWHDSLFQILSERQDMYQCLVEG [ZNF511] | 2.42 ± 0.24 | 2.43 ± 0.29 | – | –
LFTSFQEPPCEGNTFFCHSNMCIN [NETO1] | 2.14 ± 0.42 | 2.13 ± 0.41 | – | –
LGAGGGSLLPGAVEQPQPQFISRF [NEK8] | 3.14 ± 0.21 | 3.32 ± 0.46 | – | –
LGGEDGEKELISMECYDIYSKTWT [GAN] | 3.31 ± 0.45 | 3.19 ± 0.24 | – | –
LGSPYGQPPRFPVPHNGSSEATLP [PDLIM4] | 4.52 ± 0.31 | 4.6 ± 0.22 | – | –
LGVYSALREIAFTRQLHEKTSQLS [ATE1] | 2.59 ± 0.71 | 2.4 ± 0.69 | – | –
LGYLLLGAATNVFLFVLARVPAGI [MFSD9] | 3.29 ± 0.69 | 2.94 ± 0.4 | – | –
LHLESELAQTRAEGQRQAQEYEAL [KRT18] | 5.07 ± 0.2 | 5.08 ± 0.26 | – | –
LIKALKIFQEKHVNLLHIESRKSK [TPH1] | 2.28 ± 0.12 | 2.22 ± 0.23 | – | –
LIKKYSDHLENVSKLVESGIQFMD [TRIM55] | 2.27 ± 0.18 | 2.66 ± 0.2 | – | –
